One substance from patent US7906477B2, “Activation of peptide prodrugs by hK2” (Genspera, Inc., priority 2002, dated 2011) can be followed below.

The subject of data set [1] is T1, C[C@H](NC(=O)[C@H](CCCCN)NC(=O)CNC(=O)[C@@H](N)Cc1ccc(O)c([N+](=O)[O-])c1)C(=O)N[C@@H](Cc1ccccc1)C(=O)N[C@@H](CCCNC(=N)N)C(=O)N[C@@H](CCCNC(=N)N)C(=O)N[C@@H](CN)C(=O)N[C@@H](Cc1ccccc1)C(=O)N[C@@H](CCCCNC(=O)c1ccccc1N)C(=O)O.
T1 construct: made in house
As to the kind of experiment: hK2 mediated hydrolysis of peptide substrates in solution (fluorescence). Format: biochemical, human. The conditions noted are these: other: Lineweaver-Burke reciprocal plots; 37.0 °C. As for the experimental part: FIG. 2 depicts a graph of hK2 mediated hydrolysis of peptide substrates identified through the screening of a random peptide library [Y′GKARAF-Dap-FK′ (SEQ ID NO:36), Y′GKAKPR-Dap-FK′ (SEQ ID NO:37), Y′GKAFRR-Dap-FK′ (SEQ ID NO:38), Y′GKAMRQ-Dap-FK′ (SEQ ID NO:39) and Y′GSKGHFKL-Dap-F-K′ (SEQ ID NO:40)]. Substrates (250 μM) were incubated with 8 μg/ml hK2 in PBS buffer. Hydrolysis of peptide results in increased fluorescence, as measured using a 96 well fluorometer. […] To determine 100% digestion, trypsin was added (50 mg/ml) and samples were incubated to 37° C. for 30 min and the fluorescence was determined. The percentage digested is determined by dividing fluorescence units of sample by fluorescence units of control fully digested peptide.
A mutant form of hK2 was utilized in which the amino acids −5 to −1 of the propeptide sequence of hK2 (i.e. Leu-Ile-Gln-Ser-Arg; SEQ ID NO:15) were mutated to Asp-Asp-Asp-Asp-Lys (SEQ ID NO:16) to generate a pro-hK2 protein that can be activated to functional hK2 by […] (Lovgren, J. et al. (1999) Eur. J. Biochem. 266:1050-1055). […]
For validation of the Edman results, peptides were re-synthesized using a Rainin PS3 peptide synthesizer with HBTU/NMM activation. […] Fluorescence measurements were performed on a Fluoroskan II 96-well plate reader (ICN biomedicals, Costa Mesa, Calif.; excitation, 355 nm; emission, 460 nm). Kinetic parameters were calculated as described earlier (Denmeade, S. R. et al. (1997) Cancer Res. 57:4924-4930).
The combinatorial screen identified seven arginine-containing peptides. […] All four arginine-containing sequences that were re-synthesized reproduced fluorescence when these peptides were digested on-bead with hK2. For a more quantitative analysis, the fluorescence-quenched peptides were cleaved off the resin and purified by HPLC. The rate of hydrolysis was quantified by measuring increase in fluorescence (Figure). […] In subsequent studies, hydrolysis rates using the Y′GKAFRR-Dap-F-K′ (SEQ ID NO:38) peptide were analyzed by Lineweaver-Burke reciprocal plots.

Data set [2] concerns T2, Cc1cc(=O)oc2cc(NC(=O)[C@H](CCCNC(=N)N)NC(=O)[C@H](Cc3ccccc3)NC(=O)[C@H](C)NC(=O)[C@H](CCCCN)NC(=O)CN)ccc12.
T2 construct: made in house
Described as above. Format: biochemical, human. The conditions noted are these: other: Lineweaver-Burke reciprocal plots; 37.0 °C.

With hK2 (Homo sapiens), in data set [1], the Km (commonly the substrate concentration at which the rate is half of its maximum) was determined as 26.5 µM; the kcat (usually the maximal rate divided by the concentration of active sites) amounted to 1.09 s⁻¹; the specificity constant (kcat/Km) (in general, the second-order rate constant that governs catalysis at low substrate concentration) is 41,132 sec^−1 M^−1. In addition, in data set [2], the Michaelis-Menten constant (Km) was determined as 146 µM, the kcat turned out to be 0.13 s⁻¹ and the kcat/Km is 895 M⁻¹ s⁻¹.
